The text below walks through data of US20200199241A1 (Chugai, published 2020).

B1: IgG1-F426 (antibody)
heavy: QVQLQESGPGLVKPSETLSLTCAVSGHSISHDHAWSWVRQPPGEGLEWIGFISYSGITNYNPSLQGRVTISRDNSKNTLYLQMNSLRAEDTAVYYCARSLARTTAMDYWGEGTLVTVSSASTKGPSVFPLAPSSKSTSGGTAALGCLVKDYFPEPVTVSWNSGALTSGVHTFPAVLQSSGLYSLSSVVTVPSSSLGTQTYICNVNHKPSNTKVDKKVEPKSCDKTHTCPPCPAPELLGGPSVFLFPPKPKDTLMISRTVEVTCVVVDVSHEDPEVKFNWYVDGVEVHNAKTKPREEQYNSTYRVVSVLQVLHQDWLNGKEYKCKVSNKALPAPIEKTISKAKGQPREPQVYTLPPSRDELTKNQVSLTCLVKGFYPSDIAVEWESNGQPENNYKTTPPVLDSDGSFFLYSKLTVDKSRWQQGNVFSCSVMHEALHYHYTQKSLSLSP
light: not shown
notes: EU numbering; copies: 2 + 2
B2: IgG1-F432 (antibody)
heavy: QVQLQESGPGLVKPSETLSLTCAVSGHSISHDHAWSWVRQPPGEGLEWIGFISYSGITNYNPSLQGRVTISRDNSKNTLYLQMNSLRAEDTAVYYCARSLARTTAMDYWGEGTLVTVSSASTKGPSVFPLAPSSKSTSGGTAALGCLVKDYFPEPVTVSWNSGALTSGVHTFPAVLQSSGLYSLSSVVTVPSSSLGTQTYICNVNHKPSNTKVDKKVEPKSCDKTHTCPPCPAPELLGGPSVFLFPPKPKDTLMISRTVEVTCVVVDVSHEDPEVKFNWYVDGVEVHNAKTKPREEQYNSTYRVVSVLQVLHADWLNGKEYKCKVSGKALPAPIEKTISKAKGQPREPQVYTLPPSRDELTKNQVSLTCLVKGFYPSDIAVEWESNGQPENNYKTTPPVLDSDGSFFLYSKLTVDKSRWQQGNVFSCSVVHEALHYHYTQKSLSLSP
light: not shown
notes: EU numbering; copies: 2 + 2
B3: IgG1-F433 (antibody)
heavy: QVQLQESGPGLVKPSETLSLTCAVSGHSISHDHAWSWVRQPPGEGLEWIGFISYSGITNYNPSLQGRVTISRDNSKNTLYLQMNSLRAEDTAVYYCARSLARTTAMDYWGEGTLVTVSSASTKGPSVFPLAPSSKSTSGGTAALGCLVKDYFPEPVTVSWNSGALTSGVHTFPAVLQSSGLYSLSSVVTVPSSSLGTQTYICNVNHKPSNTKVDKKVEPKSCDKTHTCPPCPAPELLGGPSVFLFPPKPKDTLMISRTVEVTCVVVDVSHEDPEVKFNWYVDGVEVHNAKTKPREEQYNSTYRVVSVLQVLHADWLNGKEYKCKVSGKALPAPIEKTISKAKGQPREPQVYTLPPSRDELTKNQVSLTCLVKGFYPSDIAVEWESNGQPENNYKTTPPVLDSDGSFFLYSKLTVDKSRWQQGNVFSCSVMHEALHYHYTQKSLSLSP
light: not shown
notes: EU numbering; copies: 2 + 2
B4: IgG1-F430 (antibody)
heavy: QVQLQESGPGLVKPSETLSLTCAVSGHSISHDHAWSWVRQPPGEGLEWIGFISYSGITNYNPSLQGRVTISRDNSKNTLYLQMNSLRAEDTAVYYCARSLARTTAMDYWGEGTLVTVSSASTKGPSVFPLAPSSKSTSGGTAALGCLVKDYFPEPVTVSWNSGALTSGVHTFPAVLQSSGLYSLSSVVTVPSSSLGTQTYICNVNHKPSNTKVDKKVEPKSCDKTHTCPPCPAPELLGGPSVFLFPPKPKDTLYISRTVEVTCVVVDVSHEDPEVKFNWYVDGVEVHNAKTKPREEQYNSTYRVVSVLQVLHQDWLNGKEYKCKVSNKALPAPIEKTISKAKGQPREPQVYTLPPSRDELTKNQVSLTCLVKGFYPSDIAVEWESNGQPENNYKTTPPVLDSDGSFFLYSKLTVDKSRWQQGNVFSCSVYHEALHYHYTQKSLSLSP
light: not shown
notes: EU numbering; copies: 2 + 2
B5: IgG1-F429 (antibody)
heavy: QVQLQESGPGLVKPSETLSLTCAVSGHSISHDHAWSWVRQPPGEGLEWIGFISYSGITNYNPSLQGRVTISRDNSKNTLYLQMNSLRAEDTAVYYCARSLARTTAMDYWGEGTLVTVSSASTKGPSVFPLAPSSKSTSGGTAALGCLVKDYFPEPVTVSWNSGALTSGVHTFPAVLQSSGLYSLSSVVTVPSSSLGTQTYICNVNHKPSNTKVDKKVEPKSCDKTHTCPPCPAPELLGGPSVFLFPPKPKDTLYISRTVEVTCVVVDVSHEDPEVKFNWYVDGVEVHNAKTKPREEQYNSTYRVVSVLQVLHQDWLNGKEYKCKVSNKALPAPIEKTISKAKGQPREPQVYTLPPSRDELTKNQVSLTCLVKGFYPSDIAVEWESNGQPENNYKTTPPVLDSDGSFFLYSKLTVDKSRWQQGNVFSCSVMHEALHYHYTQKSLSLSP
light: not shown
notes: EU numbering; copies: 2 + 2
B6: IgG1-F435 (antibody)
heavy: QVQLQESGPGLVKPSETLSLTCAVSGHSISHDHAWSWVRQPPGEGLEWIGFISYSGITNYNPSLQGRVTISRDNSKNTLYLQMNSLRAEDTAVYYCARSLARTTAMDYWGEGTLVTVSSASTKGPSVFPLAPSSKSTSGGTAALGCLVKDYFPEPVTVSWNSGALTSGVHTFPAVLQSSGLYSLSSVVTVPSSSLGTQTYICNVNHKPSNTKVDKKVEPKSCDKTHTCPPCPAPELLGGPSVFLFPPKPKDTLMISRTVEVTCVVVDVSHEDPEVKFNWYVDGVEVHNAKTKPREEQYNSTYRVVSVLQVLHADWLNGKEYKCKVSGKALPAPIEKTISKAKGQPREPQVYTLPPSRDELTKNQVSLTCLVKGFYPSDIAVEWESNGQPENNYKTTPPVLDSDGSFFLYSKLTVDKSRWQQGNVFSCSVFHEALHYHYTQKSLSLSP
light: not shown
notes: EU numbering; copies: 2 + 2
B7: IgG1-F437 (antibody)
heavy: QVQLQESGPGLVKPSETLSLTCAVSGHSISHDHAWSWVRQPPGEGLEWIGFISYSGITNYNPSLQGRVTISRDNSKNTLYLQMNSLRAEDTAVYYCARSLARTTAMDYWGEGTLVTVSSASTKGPSVFPLAPSSKSTSGGTAALGCLVKDYFPEPVTVSWNSGALTSGVHTFPAVLQSSGLYSLSSVVTVPSSSLGTQTYICNVNHKPSNTKVDKKVEPKSCDKTHTCPPCPAPELLGGPSVFLFPPKPKDTLMISRTAEVTCVVVDVSHEDPEVKFNWYVDGVEVHNAKTKPREEQYNSTYRVVSVLQVLHQDWLNGKEYKCKVSNKALPAPIEKTISKAKGQPREPQVYTLPPSRDELTKNQVSLTCLVKGFYPSDIAVEWESNGQPENNYKTTPPVLDSDGSFFLYSKLTVDKSRWQQGNVFSCSVMHEALHYHYTQKSLSLSP
light: not shown
notes: EU numbering; copies: 2 + 2
B8: IgG1-F427 (antibody)
heavy: QVQLQESGPGLVKPSETLSLTCAVSGHSISHDHAWSWVRQPPGEGLEWIGFISYSGITNYNPSLQGRVTISRDNSKNTLYLQMNSLRAEDTAVYYCARSLARTTAMDYWGEGTLVTVSSASTKGPSVFPLAPSSKSTSGGTAALGCLVKDYFPEPVTVSWNSGALTSGVHTFPAVLQSSGLYSLSSVVTVPSSSLGTQTYICNVNHKPSNTKVDKKVEPKSCDKTHTCPPCPAPELLGGPSVFLFPPKPKDTLYISRTVEVTCVVVDVSHEDPEVKFNWYVDGVEVHNAKTKPREEQYNSTYRVVSVLQVLHQDWLNGKEYKCKVSNKALPAPIEKTISKAKGQPREPQVYTLPPSRDELTKNQVSLTCLVKGFYPSDIAVEWESNGQPENNYKTTPPVLDSDGSFFLYSKLTVDKSRWQQGNVFSCSVVHEALHYHYTQKSLSLSP
light: not shown
notes: EU numbering; copies: 2 + 2
B9: IgG1-F431 (antibody)
heavy: QVQLQESGPGLVKPSETLSLTCAVSGHSISHDHAWSWVRQPPGEGLEWIGFISYSGITNYNPSLQGRVTISRDNSKNTLYLQMNSLRAEDTAVYYCARSLARTTAMDYWGEGTLVTVSSASTKGPSVFPLAPSSKSTSGGTAALGCLVKDYFPEPVTVSWNSGALTSGVHTFPAVLQSSGLYSLSSVVTVPSSSLGTQTYICNVNHKPSNTKVDKKVEPKSCDKTHTCPPCPAPELLGGPSVFLFPPKPKDTLYISRTVEVTCVVVDVSHEDPEVKFNWYVDGVEVHNAKTKPREEQYNSTYRVVSVLQVLHQDWLNGKEYKCKVSNKALPAPIEKTISKAKGQPREPQVYTLPPSRDELTKNQVSLTCLVKGFYPSDIAVEWESNGQPENNYKTTPPVLDSDGSFFLYSKLTVDKSRWQQGNVFSCSVFHEALHYHYTQKSLSLSP
light: not shown
notes: EU numbering; copies: 2 + 2
B10: IgG1-F438 (antibody)
heavy: QVQLQESGPGLVKPSETLSLTCAVSGHSISHDHAWSWVRQPPGEGLEWIGFISYSGITNYNPSLQGRVTISRDNSKNTLYLQMNSLRAEDTAVYYCARSLARTTAMDYWGEGTLVTVSSASTKGPSVFPLAPSSKSTSGGTAALGCLVKDYFPEPVTVSWNSGALTSGVHTFPAVLQSSGLYSLSSVVTVPSSSLGTQTYICNVNHKPSNTKVDKKVEPKSCDKTHTCPPCPAPELLGGPSVFLFPPKPKDTLMISRTAEVTCVVVDVSHEDPEVKFNWYVDGVEVHNAKTKPREEQYNSTYRVVSVLQVLHQDWLNGKEYKCKVSNKALPAPIEKTISKAKGQPREPQVYTLPPSRDELTKNQVSLTCLVKGFYPSDIAVEWESNGQPENNYKTTPPVLDSDGSFFLYSKLTVDKSRWQQGNVFSCSVYHEALHYHYTQKSLSLSP
light: not shown
notes: EU numbering; copies: 2 + 2
B11: IgG1-F428 (antibody)
heavy: QVQLQESGPGLVKPSETLSLTCAVSGHSISHDHAWSWVRQPPGEGLEWIGFISYSGITNYNPSLQGRVTISRDNSKNTLYLQMNSLRAEDTAVYYCARSLARTTAMDYWGEGTLVTVSSASTKGPSVFPLAPSSKSTSGGTAALGCLVKDYFPEPVTVSWNSGALTSGVHTFPAVLQSSGLYSLSSVVTVPSSSLGTQTYICNVNHKPSNTKVDKKVEPKSCDKTHTCPPCPAPELLGGPSVFLFPPKPKDTLYISRTVEVTCVVVDVSHEDPEVKFNWYVDGVEVHNAKTKPREEQYNSTYRVVSVLQVLHQDWLNGKEYKCKVSNKALPAPIEKTISKAKGQPREPQVYTLPPSRDELTKNQVSLTCLVKGFYPSDIAVEWESNGQPENNYKTTPPVLDSDGSFFLYSKLTVDKSRWQQGNVFSCSVLHEALHYHYTQKSLSLSP
light: not shown
notes: EU numbering; copies: 2 + 2
B12: IgG1-F436 (antibody)
heavy: QVQLQESGPGLVKPSETLSLTCAVSGHSISHDHAWSWVRQPPGEGLEWIGFISYSGITNYNPSLQGRVTISRDNSKNTLYLQMNSLRAEDTAVYYCARSLARTTAMDYWGEGTLVTVSSASTKGPSVFPLAPSSKSTSGGTAALGCLVKDYFPEPVTVSWNSGALTSGVHTFPAVLQSSGLYSLSSVVTVPSSSLGTQTYICNVNHKPSNTKVDKKVEPKSCDKTHTCPPCPAPELLGGPSVFLFPPKPKDTLMISRTAEVTCVVVDVSHEDPEVKFNWYVDGVEVHNAKTKPREEQYNSTYRVVSVLQVLHQDWLNGKEYKCKVSNKALPAPIEKTISKAKGQPREPQVYTLPPSRDELTKNQVSLTCLVKGFYPSDIAVEWESNGQPENNYKTTPPVLDSDGSFFLYSKLTVDKSRWQQGNVFSCSVVHEALHYHYTQKSLSLSP
light: not shown
notes: EU numbering; copies: 2 + 2

T1 sequence (chain, as listed by the source limits assumed, chain 1 of 2): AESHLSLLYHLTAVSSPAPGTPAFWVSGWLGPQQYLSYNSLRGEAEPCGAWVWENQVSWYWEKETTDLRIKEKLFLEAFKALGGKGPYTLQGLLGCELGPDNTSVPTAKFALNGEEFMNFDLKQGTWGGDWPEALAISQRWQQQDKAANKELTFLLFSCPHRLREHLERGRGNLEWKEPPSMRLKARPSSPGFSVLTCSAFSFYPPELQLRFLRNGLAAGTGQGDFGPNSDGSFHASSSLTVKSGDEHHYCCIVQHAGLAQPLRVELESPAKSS
T1 sequence (P61769 21-119 limits assumed, chain 2 of 2): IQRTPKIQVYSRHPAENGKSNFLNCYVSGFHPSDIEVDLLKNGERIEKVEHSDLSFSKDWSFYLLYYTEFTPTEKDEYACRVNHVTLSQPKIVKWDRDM

The test has as its target T1, human FcRn (soluble human FcRn complexed with β2-microglobulin) (human, UniProt P61769 21-119, limits assumed).
T1 construct: also called hFcRn
The test can be described thus: SPR, pH 7.0.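 Also: antibodies captured on a Protein L sensor chip with human FcRn injected as analyte, KD calculated from fitted association and dissociation rate constants.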
For the molecule B1, the Kd was 84 nM. This counts as double-digit nanomolar.

The molecule B2 gave a Kd of 920 nM.

In turn, B3 had a Kd of 60 nM.

As for B4, the Kd was found to be 81 nM.

The molecule B5 displayed a Kd of 37 nM.

B6 showed a dissociation constant Kd of 25 nM.

B7: the Kd is 57 nM.

In turn, B8 came in with a Kd of 110 nM. Against the preceding molecule, the Kd is about 1.9-fold higher.

Molecule B9 returned a Kd of 65 nM. This Kd lies about 1.7-fold lower than the previous one.

B10 gave a Kd of 36 nM.

Consider B11, for which the Kd is 80 nM.

The molecule B12 displayed a Kd of 250 nM.
